# Reference: IntAct's records for PubMed 24802387
# B1: Relaxin-3 (Homo sapiens), Q8WXF3 (parent)
# chain: MARYMLLLLLAVWVLTGELWPGAEARAAPYGVRLCGREFIRAVIFTCGGSRWRRSDILAHEAMGDTFPDADADEDSLAGELDEAMGSSEWLALTKSPQAFYRGRPSWQGTPGVLRGSRDVLAGLSSSCCKWGCSKSEISSLC
# Variants of: B1
# Settings: with rl3r2_human RXFP4, Q8TDU9
# Chain of rl3r2_human RXFP4, Q8TDU9 (Q8TDU9 whole entry): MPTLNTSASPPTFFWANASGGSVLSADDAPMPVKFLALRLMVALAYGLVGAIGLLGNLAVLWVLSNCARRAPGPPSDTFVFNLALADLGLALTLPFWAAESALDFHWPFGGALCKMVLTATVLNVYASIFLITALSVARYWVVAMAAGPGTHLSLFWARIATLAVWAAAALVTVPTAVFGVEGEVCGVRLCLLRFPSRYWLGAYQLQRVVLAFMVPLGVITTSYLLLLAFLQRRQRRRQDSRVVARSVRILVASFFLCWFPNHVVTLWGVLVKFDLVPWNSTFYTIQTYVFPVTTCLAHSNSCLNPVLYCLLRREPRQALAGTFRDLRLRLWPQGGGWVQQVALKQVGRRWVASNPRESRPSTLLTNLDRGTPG
row,effect of a mutation on the interaction,Variant
1,decreasing interaction,R37E

# Variants of: B1
# Settings: with rl3r2_human RXFP4, Q8TDU9
# Remark: another data set of the same source
row,effect of a mutation on the interaction,Variant
1,increasing interaction,R37E

# Variants of: B1
# Settings: with rl3r2_human RXFP4, Q8TDU9
# Remark: another data set of the same source
row,effect of a mutation on the interaction,Variant
1,decreasing interaction,R51E

# Variants of: B1
# Settings: with rl3r2_human RXFP4, Q8TDU9
# Remark: another data set of the same source
row,effect of a mutation on the interaction,Variant
1,increasing interaction,R51E

# Variants of: B1
# Settings: with rl3r2_human RXFP4, Q8TDU9
# Remark: another data set of the same source
row,effect of a mutation on the interaction,Variant
1,decreasing interaction,R41E

# Variants of: B1
# Settings: with rl3r2_human RXFP4, Q8TDU9
# Remark: another data set of the same source
row,effect of a mutation on the interaction,Variant
1,increasing interaction,R41E
